Reference: the supplement of paper PMC9170038

Columns and labels:
Conditions in all cases: FMN input: 0 or 200 uM; Eterna round: R93 (includes R88 designs)
MS2 coat protein [1] = experiment: apparent KD of MS2 coat protein, switch ON state; designed switch direction (-1 OFF switch, 1 ON switch): 1; higher = weaker reporter binding
Outline: (§1)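 Apparent KD is reported per design as the median of normalised binding-curve fits across its clusters. The RNA switches were made by on-chip transcription from Illumina sequencing clusters. SNAP-549-labelled MS2 coat protein was then added in twofold steps (0.7 or 1.5 nM to 3 µM; 0.8–1.5 h to 10–20 min per step) in 100 mM Tris-HCl pH 7.5, 80 mM KCl, 4 mM MgCl2, without or with constant ligand.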

MS2 coat protein [2] = experiment: apparent KD of MS2 coat protein, switch OFF state (with FMN for OFF switches, without FMN for ON switches); designed switch direction (-1 OFF switch, 1 ON switch): 1; higher = weaker reporter binding
Outline: as §1

MS2 coat protein [3] = experiment: apparent KD of MS2 coat protein, switch OFF state (with FMN for OFF switches, without FMN for ON switches); designed switch direction (-1 OFF switch, 1 ON switch): -1; higher = weaker reporter binding
Outline: as §1

MS2 coat protein [4] = experiment: apparent KD of MS2 coat protein, switch ON state; designed switch direction (-1 OFF switch, 1 ON switch): -1; higher = weaker reporter binding
Outline: as §1

| Sequence | apparent KD of MS2 coat protein (MS2 coat protein [1]) | apparent KD of MS2 coat protein (MS2 coat protein [2]) | apparent KD of MS2 coat protein (MS2 coat protein [3]) | apparent KD of MS2 coat protein (MS2 coat protein [4]) |
| --- | --- | --- | --- | --- |
| AAUAUACAUGAGGAUCACCCAUGUUUUAAUAGCUGAGGAUAUACGGGUGAAAACAGCAUAGUAGAAGGCGGGUGUA [SameState1 Malc#8] | 99.6 nM | 115 nM | – | – |
| AAAUAAAUAAAAAAGGAUAUAAAAAAGUACACAUGAGGAUCACCCAUGUGUACACAUGGGUGAUCCUAGAAGGAAAAAUAAAAAA [SS2: 91 No MS2] | 117 nM | 73.3 nM | – | – |
| UUACAGCACAGGUAGGAUAUGUAGGGUGGUACAUGAGGAUCACCCAUGUAUCCACCCUUCGAAAGGCAGAAGGGCCUGUCGCCGC [Leanisqube] | 13.1 nM | 15 nM | – | – |
| AAAAUACAUGAGGAUCACCCAUGUGAAAAUAUGGGAGGAUAUACCGAAAAAAAAAAAAAGGUAGAAGGCCCAAAAA [SS! 1 MT 5] | 17.1 nM | 69.2 nM | – | – |
| AGAAAUAAAAGAGAGGAUAUGCAAAAGAUAACAUGAGGAUCACCCAUGUAAAAGAAAAUAAAUGGGUAGAAGGCUCAAAAUAAGA [Jieux modified] | 86.4 nM | 64.9 nM | – | – |
| AAAGAAAAACUAGAGGAUAUCCGAGUGGUAACAUGAGGAUCACCCAUGUGACGAAAGGAACAUGAGGAGAAGGCUAGAAGAAAAA [JL Nando mod 9] | 46.3 nM | 315 nM | – | – |
| AAUAAACAUGAGGAUCACCCAUGUAGAAAUAUGGGAGGAUAUACAAAGACGAAAGUCAAAGUAGAAGGCCUAAUAA [Mat - Same State 1 - Mod - D153] | 18 nM | 58.5 nM | – | – |
| CGGAAGGAGAGAGAGGAUAUCCAAAGGAAAACAUGAGGAUCACCCAUGUAGAAGGUAGGAAAUUGGGAGAAGGCUCAAGAGACAG [salish99-ss2-125] | 25.3 nM | 55.9 nM | – | – |
| AUAAUAAGAAGCUAGGAUAUGCUAAAGUAAACAUGAGGAUCACCCAUGUAAAGAAAAAAACUCAUGUAGAAGGAGCAGAAAUAAA [moonwalk 6] | 99.1 nM | 106 nM | – | – |
| GAGGACCUAGGAUAGGAUAUGUGAAUAAUUACAUGAGGAUCACCCAUGUCCAUUUAUAUGGGAACAUAGAAGGGUUCUGGUUAUC [SameState2 Malc#38] | 51.8 nM | 71.9 nM | – | – |
| AACAGACAUGAGGAUCACCCAUGUAGAAUUAUGGGAGGAUAUACAAAGACGAGAGUCAGAGUAGAAGGCCUAGGAA [salish99-ss1-165] | 22 nM | 89.7 nM | – | – |
| AACCAACAUGAGGAUCACCCAUGUCAACCCAAGCGAGGAUAUCCGAGAAUAACAAUGGGAGGAGAAGGCGCGACCU [ss1] | 38.1 nM | 39 nM | – | – |
| AAAGAAAAACUAGAGGAUAUCUGAGUGGUAACAUGAGGAUCACCCAUGUGAAGAAAGGAGCAUGAGGAGAAGGCUAGAAGAAAAA [JL Nando mod 22] | 11.7 nM | 59 nM | – | – |
| AAUAACAGAGGAUAUACUAAAGAAAUGAAAAGAAAUAAAGAACAUGAGGAUCACCCAUGUAGAAGGCUGAAUAA [Sheneh] | – | – | 21.5 nM | 16.9 nM |
| AAAAAUUGAGGAUAUACGUACAUGUCGAAAGACGUGAAGGGACAUGAGGAUCACCCAUGUAGAAGGCGAAAAAA [Mat - Exclusion 2 - JL mod - D73] | – | – | 27.9 nM | 45.6 nM |
| AAAAAACAUGAGGAUCACCCAUGUAAGGAUAUGCGAAAUAAAAGAAAUAAAAAGGAAAGCAGAAGGUACAUGAA [JL wbt mod 8] | – | – | 84.4 nM | 27.2 nM |
| AUAAUGAGAGGAUAUACAUGAGGAUCACCCAUGUAAUUAAAAAGGAGAGAAACAAUACGUAGAAGGCUCAUUUA [JR_Exc003+Sub601] | – | – | 50.6 nM | 21.6 nM |
| AGCUAGUCAGGAUAUACGAACAUGUCAAAAGACGUGAAGGGACAUGAGGAUCACCCAUGUAGAAGGGACUAGCC [salish99-Ex2-17] | – | – | 145 nM | 33.2 nM |
| AAAAAGGUAGGAUAUACAUGAGGAUCACCCAUGUACAUAAAUGGAGAAAAAAACAGUAGUAGAAGGGCCAAAAA [Ex3 Malc#10] | – | – | 36.9 nM | 29.5 nM |
| GGGUAACAUGAGGAUCACCCAUGUGAGGAUAUUCUAGGGAUGGAAGCUCGGCCGGCCAGGAGAAGGUACUAAAG [Janelle Amethyst 18 Mod 20 - Jieux - Exclusion 1] | – | – | 36.8 nM | 26.3 nM |
| AAAGGACAUGAGGAUCACCCAUGUGAGGAUAUGCGAAAAAAAAAAAUAAAAAAAAAAAGUAGAAGGCACACCAA [Mat - Exclusion 1 - Eli mod - D57] | – | – | 128 nM | 99.4 nM |

| Sequence | apparent KD of MS2 coat protein (MS2 coat protein [1]) | apparent KD of MS2 coat protein (MS2 coat protein [2]) | apparent KD of MS2 coat protein (MS2 coat protein [3]) | apparent KD of MS2 coat protein (MS2 coat protein [4]) |
| --- | --- | --- | --- | --- |
| UAAAAGUGAGGAUAUUCGGAUAGGAAAACGAAAACCUAUCCGAAGAAGGCACAUGAGGAUCACCCAUGUGGAAU [Mat - Exaclusion 4 - Eli mod - D48] | – | – | 36 nM | 31.3 nM |
| GAAAAACAUGAGGAUCACCCAUGUAAGGAUAUGCUGAAAAAACACUGGAAACAGUGCAGCAGAAGGUACAAAAG [Mat - Exclusion 1 - Eli mod - D100] | – | – | 73.3 nM | 20.3 nM |
| AAAAAGCGAGGAUAUACGAGUCAAAGAAAAGACAAAGGGAAACAUGAGGAUCACCCAUGUAGAAGGCGCAAAAA [Fiskers exclusion D2 62% 1] | – | – | 134 nM | 23.7 nM |
| AGUUGGCGAGGAUAUACAUGAGGAUCACCCAUGUGAGAGUAAAAAGUGAGAAAGAAAAGUAGAAGGCGCUAACA [JL Lego Mod 19] | – | – | 352 nM | 48.8 nM |
| AAGAAGAGAGGAUAUACAUGAGGAUCACCCAUGUAAAAGAAAGAGGGAAAAGAGAAAAGUAGAAGGCUCAAGAA [Arsinoe II] | – | – | 37 nM | 23.9 nM |
| AACAAACAUGAGGAUCACCCAUGUAAGGAUAUGCAACAAAAACAAAAAACAAAAAAAAGCAGAAGGUACAACAA [Amethyst 99] | – | – | 28.8 nM | 25.6 nM |
| AGGGAGUGAGGAUAUGCGAAAUAAAAAGAAGGAAAAAAAGAGCAGAAGGCACAUGAGGAUCACCCAUGUGAGAA [milkweed 11] | – | – | 15.7 nM | 22.6 nM |
| AAGAACGUAGGAUAUACAUGAAAGAAAGAAAAGAAAAGAAAACAUGAGGAUCACCCAUGUAGAAGGACGUAGAA [EteRNA is fun!] | – | – | 22.1 nM | 20 nM |
| GAAAAGUCAGGAUAUGCAGAAAAAAAAACGAAAAAAAAACUGCAGAAGGGACAUGAGGAUCACCCAUGUUAAAG [Mat - Exclusion 4 - Mayanna - D128] | – | – | 33.1 nM | 50.9 nM |
| AAAAAGUGAGGAUAUACAUGAGGAUCACCCAUGUGUAUAAAAAAAUACACAAAAGAAAGUAGAAGGCACUAAAG [Mat - Exclusion 3 - Mayanna mod - D109] | – | – | 84.8 nM | 28.4 nM |
| AGGAUGUCAGGAUAUGUGUAAAGAAUAAAACAAAUAACAACACAGAAGGGACAUGAGGAUCACCCAUGUUACCC [May 38] | – | – | 17.7 nM | 17.1 nM |
| AAAAAUCGAGGAUAUACAUGAGGAUCACCCAUGUGGGAACACGAUUACACAAAAGAAAGUAGAAGGCGAUAAAA [Ex 3 May 22] | – | – | 162 nM | 28.2 nM |
| AAAAAACAUGAGGAUCACCCAUGUGAGGAUAUGCAUAAAAAAAAAAAAAAAAAAAAAUGCAGAAGGCACAUAAA [jn_bayonne] | – | – | 78.5 nM | 40.1 nM |
| AAGAAGGGAGGAUAUACAUAAAAGAAAGAAAAGAAAAGAAAACAUGAGGAUCACCCAUGUAGAAGGCCCAAGAA [EteRNA is fun!] | – | – | 29.3 nM | 28.7 nM |
| AAAAAGGCAGGAUAUACAAAAAAGAGAAGAGAGGAGGAGGGACAUGAGGAUCACCCAUGUAGAAGGGCCAAAAA [Karl Gunnar Myrdal] | – | – | 32.5 nM | 31.5 nM |
| AAUAAGUGAGGAUAUGGAAAUAAUAAAUAAAAUACCCUAAACCAGAAGGCACAUGAGGAUCACCCAUGUAAAUA [JR_Exc004_Sub003] | – | – | 28 nM | 34.1 nM |
| AACAGGUCAGGAUAUGUGGAAAAAAUAAAAAAAAAUAAAACACAGAAGGGACAUGAGGAUCACCCAUGUAAAUA [Mat - Exclusion 4 - Mayanna - D142] | – | – | 59.2 nM | 68.7 nM |
| AAGAAAGCAGGAUAUACAAAAUAAAAGAAAAGAAAGAAAGAACAUGAGGAUCACCCAUGUAGAAGGGCUAAGAA [Khahotepre Sobekhotep VI] | – | – | 32.3 nM | 38 nM |
| AUAAAACAUGAGGAUCACCCAUGUGAGGAUAUAGGAAACAAACAAACAAACAAACAAACUAGAAGGCACAAUAA [Amethyst 10] | – | – | 16.7 nM | 13 nM |
| AACAGUACAGGAUAUACAUGAGGAUCACCCAUGUGAGAAUUAAGUGGCGUACCACAAAGUAGAAGGGUACUGAA [Mat - Exclusion 3 - JL mod - D6] | – | – | 97.3 nM | 30.8 nM |
| AAAACUGGAGGAUAUACAUGAGGAUCACCCAUGUGUGGAUGAGCUGAAACGGCAUCACGUAGAAGGCCACAAAA [Gilly Gone Silly 40 - Jieux - Exclusion 3] | – | – | 45.2 nM | 35.3 nM |
